According to patent US20040038861A1, “Methods and compositions for normalizing lipid levels in mammalian tissues” (priority 2001, published 2004):

Columns and labels:
[1] = target: metabolic amylin receptor
[2] = target: high affinity CGRP receptor
[3] = target: metabolic amylin receptor; remark: listed apart in the source
[4] = target: high affinity CGRP receptor; remark: listed apart in the source
[5] = target: high affinity CGRP receptor; remark: listed apart in the source
[6] = target: metabolic amylin receptor; remark: listed apart in the source
soleus muscle [7] = experiment: Lipid metabolites (free fatty acid, glycerol, triglyceride; enzymatic analysis) in isolated soleus muscle from normally fed rats; type: cell-based, rat; settings: 1 h
ramp 1/C1ins− receptor = target: T1, ramp 1/C1ins− receptor (Mus musculus, UniProt Q60755+Q9WTJ5); experiment: cAMP production in L6 myoblasts co-transfected with ramp 1 and C1ins−; type: cell-based, murine; settings: 5 μM antagonist; agonist 10 pM to 100 nM
T1 construct: expressed in transfected cells; host or cells: L6 myoblasts (ATCC), transient co-transfection of pcDNA3.1 plasmids
T1 sequence (Q60755 42-496 isoform Q60755-2 limits assumed): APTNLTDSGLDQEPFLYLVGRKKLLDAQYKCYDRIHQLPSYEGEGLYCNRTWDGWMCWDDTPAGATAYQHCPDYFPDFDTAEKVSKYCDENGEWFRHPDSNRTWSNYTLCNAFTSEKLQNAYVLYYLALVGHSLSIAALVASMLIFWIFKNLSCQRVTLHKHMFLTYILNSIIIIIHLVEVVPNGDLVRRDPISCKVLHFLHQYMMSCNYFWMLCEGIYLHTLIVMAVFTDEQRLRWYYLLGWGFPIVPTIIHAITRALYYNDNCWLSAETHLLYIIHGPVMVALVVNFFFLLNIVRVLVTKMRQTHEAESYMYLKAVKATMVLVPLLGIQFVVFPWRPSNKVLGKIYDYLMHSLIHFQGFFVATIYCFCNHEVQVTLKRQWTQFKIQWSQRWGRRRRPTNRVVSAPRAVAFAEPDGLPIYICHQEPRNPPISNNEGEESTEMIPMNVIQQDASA
T1 sequence (Q9WTJ5 27-148 partner): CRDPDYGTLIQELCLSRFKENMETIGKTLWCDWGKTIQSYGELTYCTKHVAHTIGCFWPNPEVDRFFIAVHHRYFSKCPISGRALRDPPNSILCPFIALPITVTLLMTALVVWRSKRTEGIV
Description: Transfection of L6 myoblasts and cos-7 cells, and analysis of radioligand binding. L6 myoblasts and cos-7 cells were obtained from ATCC. Both cell lines were cultered in Dulbecco's modified Eagle's medium (DMEM; Gibco/BRL, high glucose) supplemented with 10% fetal calf serum (Gibco/BRL, Gaithersburg, Md.), L-glutamine (2 mM), penicillin (100 U/ml; Sigma), streptomycin ([…]; Sigma), saline (0.85%), under 5% CO2/95% air at 37° C. The day before transfection, cells were trypsinised and seeded into six-well plates at a density of 2.9×10^5 cells/well in the same medium. For transfection, cells were incubated with a mixture comprising 1 μg each of Qiagen-purified (Qiagen, Valencia, Calif.) plasmids containing C1ins− with either ramp 1 or ramp 3, and Fugene reagent (6 μl; Boehringer Mannheim) in Opti-Mem I medium (Gibco/BRL). The complex was added with serum to cells, which were incubated for a further 48 h.
Determination of cAMP in cultured cells and soleus muscle strips. cAMP concentration was measured in cells seeded in six-well plates and transfected as described. Following aspiration, cells were incubated for 15 min at room temperature in the presence of stated concentrations of ligands in binding buffer. Isobutylmethylxanthine (Sigma) was added to a final concentration of 0.5 mM together with stated concentrations of peptides, and the reaction terminated by aspiration. Cells were washed with 0.5 ml ice-cold TE buffer (10 mM Tris/HCl, 1 mM EDTA, pH 7.6) and rapidly transferred to eppendorf tubes in 1 ml of the same buffer, then boiled for 5 min. Following centrifugation at 12,000 g for 5 min at 4° C., then cooling on ice, duplicate 50 μl aliquots were analyzed for cAMP using an assay system based on competitive binding (Arnersham Pharmacia) according to the manufacturer's instructions.

soleus muscle [8] = experiment: cAMP content of isolated soleus muscle from high fat-fed rats; type: cell-based, rat
Description: (§1) Soleus muscle preparation. All experiments were performed according to protocols approved by the Institutional Animal Ethics Committee. 5-6 week-old male Wistar rats (160 g) were kept on a 12:12-h light/dark cycle, and fed and watered ad libitum. Animals were anaesthetised with 50 mg/kg Nembutal (pentobarbitone sodium), then sacrificed by cervical dislocation. Soleus muscles were dissected under oxygenated KHB (118 mM NaCl, 4.75 mM KCl, 1.2 mM MgSO4, 24.8 mM NaHCO3, 1.2 mM KH2PO4, 2.54 mM CaCl2, 10 mM glucose, pH 7.4) and teased into halves, then incubated as described below.
(§2) For the measurement of cAMP in muscle, isolated soleus strips were incubated with stated concentrations of peptides, then lyophilized and deproteinized. Each strip was placed in 400 μl of 0.5 M HClO4 with 5 mM EDTA (phosphodiesterase inhibitor) and sonicated three times in 20 s bursts. Tubes were heated for 3-5 min in boiling water to coagulate protein, then centrifuged (12,000 g, 4° C., 2 min). Supernatant (300 μl) was taken and the pH adjusted to 7.0 with 75 μl of 2 M NH4OH. The samples were refrigerated (4° C., 2 h) to precipitate proteins, then centrifuged under the same conditions as above and 50 μl taken for cAMP measurement.

soleus muscle [9] = experiment: cAMP content of isolated soleus muscle from normal fed rats; type: cell-based, rat; settings: normal fed; 10-fold molar excess of antagonist; CGRP alone 6.9±0.8
Description: as §1, §2

soleus muscle [10] = experiment: Glucose transport (2-deoxy-D-glucose uptake) in incubated soleus muscle strips; type: cell-based, rat; settings: antagonist 1 μM and 10 μM; without antagonist 19.5±3.6
Description: as §1
Determination of rates of glucose transport in incubated soleus muscle strips. 4-5 muscle strips were added to each flask, which contained 10 ml DMEM. They were pre-incubated with hormones as indicated for 30 min at 30° C. in a shaking water bath, after which 5 μl of 2[^3H]DOG (0.5 μCi/ml) and 5 μl D[^14C(U)]sorbitol (0.05 μCi/ml) were added, then incubated for another 30 min; RIA grade BSA was added to 0.9% (w/v) to prevent non-specific binding of insulin to flasks. Following incubation, muscle strips were transferred to ice-cold KHB for 5-10 min to remove excess [^3H]DOG and [^14C]sorbitol. They were then blotted, frozen, tendons excised, then lyophilized for a further 48 h. Muscles were then weighed, transferred to scintillation vials and digested with 0.5 ml 1 M NaOH at 60° C. for 1 h. Scintillation fluid (4 ml) was added to each vial, and samples counted in a Beckman liquid scintillation spectrometer, preset to count ^14C and ^3H channels simultaneously. The amount of each isotope present in the samples was determined and used to calculate the extracellular space and the intracellular concentration of [^3H]DOG. The accumulation of intracellular [^3H]DOG, a measure of muscle glucose uptake, was calculated by subtracting the concentration of [^3H]DOG in the extracellular space from the corresponding total muscle [^3H]DOG]; extracellular [^3H]DOG was quantified by measuring the muscle concentration of [^14C]sorbitol.
(§3) Data analysis. One way ANOVA, Dunnett's Multiple Comparisons Test, and unpaired Student's t-tests were used to calculate the statistical significance of differences, as appropriate. Dose-response curves were fitted to a sigmoidal dose-response algorithm, as follows: Y=minimum+(maximum−minimum)/([…] log ^(EC50^−X), for 2-DOG-uptake; and by a four parameter logistic model, Y=minimum+(maximum−minimum)/(1+10 log ^(EC50^−X)Hill-Coefficient) for total glycogen and [^14C]glucose incorporation. Calculations were performed using Prism v2.0 (GraphPad Software, San Diego, Calif.) to derive values for half-maximal effective concentration (EC50). Displacement curves derived for competition of bound radioligand with cold ligand in transfected cells were calculated according to a one site competition fit using Prism v2.0.

soleus muscle [11] = experiment: Incorporation of D[14C(U)]glucose into glycogen in isolated incubated soleus muscle; type: cell-based, rat; settings: isolated rat soleus muscle
Description: as §1
Measurement of glycogen metabolism in isolated, incubated soleus muscle. […]. Glycogen was precipitated overnight at −20° C. with 96% ethanol (1.2 ml), followed by centrifugation at 8,000 g (15 min, 4° C.). Pellets were washed twice with the same amount of ethanol then dissolved in water (0.6 ml). Aliquots (0.3 ml) were analyzed for D[^14C(U)] glucose content by liquid scintillation spectrometry.
as §3

soleus muscle [12] = experiment: Total glycogen content in isolated incubated soleus muscle; type: cell-based, rat; settings: isolated rat soleus muscle
Description: as §1
Total glycogen content was measured in muscle strips by lyophilization followed by hydrolysis of glycogen to D-glucose with amyloglucosidase (Sigma) 20 U/100 ml in 0.2 M sodium acetate/acetic acid buffer, pH 4.8, and expressed as μmol ‘glucosyl’ units/g dry muscle weight. Free glucose in supernatant solutions was measured with a glucose/lactate analyzer (YSI 2300STAT, Yellow Springs Corporation) using D-glucose oxidase immobilized enzyme chemistry.
as §3

[13] = target: T2, murine ramp 1/C1ins− receptor (Mus musculus, UniProt Q60755+Q9WTJ5); experiment: Radioligand binding and displacement of [3H]amylin in L6 myoblasts co-transfected with murine ramp 1 and C1ins−; settings: 10 nM radioligand, FIG. 8D
T2 construct: expressed in transfected cells; host or cells: L6 myoblasts (ATCC), transient co-transfection of pcDNA3.1 plasmids
T2 sequence (Q60755 42-496 isoform Q60755-2 limits assumed): T1 sequence (Q60755 42-496 isoform Q60755-2 limits assumed)
T2 sequence (Q9WTJ5 27-148 partner): T1 sequence (Q9WTJ5 27-148 partner)
Description: Transfection of L6 myoblasts and cos-7 cells, and analysis of radioligand binding. L6 myoblasts and cos-7 cells were obtained from ATCC. Both cell lines were cultered in Dulbecco's modified Eagle's medium (DMEM; Gibco/BRL, high glucose) supplemented with 10% fetal calf serum (Gibco/BRL, Gaithersburg, Md.), L-glutamine (2 mM), penicillin (100 U/ml; Sigma), streptomycin (100 mg/ml; Sigma), saline (0.85%), under 5% CO2/95% air at 37° C. The day before transfection, cells were trypsinised and seeded into six-well plates at a density of 2.9×10^5 cells/well in the same medium. For transfection, cells were incubated with a mixture comprising 1 μg each of Qiagen-purified (Qiagen, Valencia, Calif.) plasmids containing C1ins− with either ramp 1 or ramp 3, and Fugene reagent (6 μl; Boehringer Mannheim) in Opti-Mem I medium (Gibco/BRL). The complex was added with serum to cells, which were incubated for a further 48 h.
For binding experiments, radioligand (either alone or together with stated final concentrations of non-radiolabeled ligands) was dissolved in DMEM containing 0.1% BSA (binding buffer) for 1 h before binding experiments were performed. […] Cells were washed twice with this buffer, then incubated with 1 ml of the same plus radioligand for 4 h at room temperature (21° C.).

[14] = target: T3, murine ramp 1/C1ins- receptor (murine, UniProt Q60755); experiment: displacement of 20 nM [^3H]amylin, co-transfected L6 myoblasts; Cheng and Prusoff with Kd […]
T3 sequence 1: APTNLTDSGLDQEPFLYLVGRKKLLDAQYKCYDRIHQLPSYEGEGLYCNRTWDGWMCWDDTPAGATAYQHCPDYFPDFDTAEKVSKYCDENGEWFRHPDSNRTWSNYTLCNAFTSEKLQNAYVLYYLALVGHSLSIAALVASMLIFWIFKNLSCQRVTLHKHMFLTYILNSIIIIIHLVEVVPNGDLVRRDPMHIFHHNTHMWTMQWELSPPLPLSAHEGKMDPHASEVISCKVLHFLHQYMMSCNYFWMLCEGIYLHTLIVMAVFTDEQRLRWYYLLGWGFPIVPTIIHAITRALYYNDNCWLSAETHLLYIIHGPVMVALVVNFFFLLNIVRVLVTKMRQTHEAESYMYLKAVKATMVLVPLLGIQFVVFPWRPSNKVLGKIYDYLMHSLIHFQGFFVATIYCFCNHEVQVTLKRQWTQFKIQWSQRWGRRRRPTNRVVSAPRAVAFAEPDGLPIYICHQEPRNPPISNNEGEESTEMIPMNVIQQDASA
T3 sequence 2: T1 sequence (Q9WTJ5 27-148 partner)
From the text: (§4) Cells were then washed and bound radioactivity determined by liquid scintillation counting. […] Each point represents the mean±SEM of three independent myoblast transfections from an experiment repeated at least twice.
95% confidence intervals (nM) are bracketed.

[15] = target: T3, murine ramp 1/C1ins- receptor; experiment: displacement of 20 nM [^3H]amylin, co-transfected L6 myoblasts
From the text: as §4

[16] = target: T3, murine ramp 1/C1ins- receptor; experiment: displacement of 20 nM [^3H]amylin, L6 myoblasts co-transfected with murine ramp 1 and C1ins-
From the text: as §4

rat CGRP-1 (ligand)
EC50, ^14C-glucose incorporation into glycogen, with insulin (23.7 nM) [1]: 0.7 nM | EC50, ^14C-glucose incorporation into glycogen, without insulin [1]: 3.1 nM | EC50, total glycogen content, without insulin [1]: 3.2 nM | NEFA content of soleus muscle from high fat-fed rats, EC50 [2]: 0.0007 nM | decrease in intramuscular triglyceride of soleus muscle from high fat-fed rats, EC50 [2]: 0.00025 nM | free fatty acid content in incubated rat soleus muscle, EC50 of the second phase [3]: 45 nM | free fatty acid content in incubated rat soleus muscle, EC50 of the first phase [4]: 0.00025 nM | lipolysis in skeletal muscle, EC50 as summed up in the description [5]: 0.00026 nM

rat amylin (from UniProt P12969) (ligand)
EC50, total glycogen content, without insulin [1]: 8 nM | free fatty acid content in incubated rat soleus muscle, EC50 [6]: 7.8 nM

rat amylin-(8-37)
free fatty acid concentration in conjunction with 1 pM CGRP (soleus muscle [7]; 100 pM antagonist + 1 pM CGRP, CGRP alone 166±18): 86±20 nmol/g | free fatty acid content in conjunction with 100 nM CGRP (soleus muscle [7]; 10 μM antagonist or maximally stimulating insulin (23.7 nM) + 100 nM CGRP, CGRP alone 334±52): 34 ± 5 nmol/g | free fatty acid content in conjunction with 100 nM amylin (soleus muscle [7]; 10 μM antagonist or maximally stimulating insulin (23.7 nM) + 100 nM amylin, amylin alone 216±26): 18.5 ± 6 nmol/g | antagonism of peptide-evoked cAMP production (ramp 1/C1ins− receptor): only a modest decrease in cAMP production | cAMP content with 100 nM CGRP1 plus antagonist (soleus muscle [8]; 10-fold molar excess of antagonist): 4.3 ± 0.8 pmol/mg | cAMP content with 1 pM CGRP plus antagonist (soleus muscle [8]; 10-molar excess of antagonist, CGRP alone 8.6±0.4): 4.4±0.4 pmol/mg | cAMP content with 100 nM CGRP plus antagonist (soleus muscle [9]): 2.9 ± 0.8 pmol/mg | glucose uptake in presence of amylin (10 nM) and insulin (23.7 nM) plus antagonist (soleus muscle [10]): no significant effect

salmon calcitonin
EC50 (soleus muscle [11]; absence of insulin): 0.1 nM | EC50 (soleus muscle [11]; human insulin 23.7 nM): 0.9 nM | EC50 (soleus muscle [12]; absence of insulin): 1.7 nM | EC50 (soleus muscle [12]; human insulin 23.7 nM): 0.6 nM | specific binding of [3H]radioligand to L6 myoblasts co-transfected with ramp 1 and C1ins− [13]: significant increases in specific binding

VTHRLAGLLSRSGGVVKDNFVPTNVGSEAF [^8,37rat CGRP-1]
Ki [14]: 19.5 nM | fold lower Kl than ^8,37amylin [15]: ~20 fold | IC50 [16]: 62 nM
